In US20250157661:

Test system: Indicator molecule containing the cleavable sequence GPQGIFGQ with a terminal biotin group connected via a polyethylene glycol spacer/linker (intact, Examples 1-6)

Active MMP-9 (Alere San Diego), sequence (chain, as listed by the source): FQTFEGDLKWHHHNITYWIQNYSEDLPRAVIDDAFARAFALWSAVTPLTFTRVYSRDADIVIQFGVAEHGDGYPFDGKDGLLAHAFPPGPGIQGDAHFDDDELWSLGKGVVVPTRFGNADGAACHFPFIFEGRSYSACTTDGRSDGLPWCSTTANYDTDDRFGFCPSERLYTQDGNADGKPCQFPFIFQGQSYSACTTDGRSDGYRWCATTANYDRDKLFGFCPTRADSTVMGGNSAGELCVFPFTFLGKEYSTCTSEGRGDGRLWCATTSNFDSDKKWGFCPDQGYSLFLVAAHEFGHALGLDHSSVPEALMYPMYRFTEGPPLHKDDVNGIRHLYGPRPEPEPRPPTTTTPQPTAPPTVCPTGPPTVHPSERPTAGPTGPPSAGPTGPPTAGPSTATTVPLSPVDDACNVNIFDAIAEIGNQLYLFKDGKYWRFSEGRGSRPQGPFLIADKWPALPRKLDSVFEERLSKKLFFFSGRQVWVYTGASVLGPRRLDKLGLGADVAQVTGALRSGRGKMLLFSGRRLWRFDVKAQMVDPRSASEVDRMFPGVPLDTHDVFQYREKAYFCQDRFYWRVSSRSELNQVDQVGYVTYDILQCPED
MMP3 (Enzo), sequence (chain, as listed by the source): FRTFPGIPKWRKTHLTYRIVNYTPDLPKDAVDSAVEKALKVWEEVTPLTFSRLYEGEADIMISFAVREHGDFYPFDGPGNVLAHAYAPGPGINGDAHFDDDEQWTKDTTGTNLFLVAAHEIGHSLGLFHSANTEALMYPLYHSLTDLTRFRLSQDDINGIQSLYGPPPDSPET
MMP2 (Enzo), sequence (chain, as listed by the source): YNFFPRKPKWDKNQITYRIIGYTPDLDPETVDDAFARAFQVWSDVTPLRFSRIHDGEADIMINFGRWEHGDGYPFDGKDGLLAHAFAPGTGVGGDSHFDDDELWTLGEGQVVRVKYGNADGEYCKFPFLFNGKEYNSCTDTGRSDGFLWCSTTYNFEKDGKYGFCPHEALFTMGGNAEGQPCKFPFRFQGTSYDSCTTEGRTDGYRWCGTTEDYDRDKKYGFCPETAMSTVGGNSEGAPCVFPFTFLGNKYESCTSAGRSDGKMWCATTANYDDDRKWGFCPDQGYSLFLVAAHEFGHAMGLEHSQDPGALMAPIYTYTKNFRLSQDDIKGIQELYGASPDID
MMP9 (Enzo), sequence (chain, as listed by the source): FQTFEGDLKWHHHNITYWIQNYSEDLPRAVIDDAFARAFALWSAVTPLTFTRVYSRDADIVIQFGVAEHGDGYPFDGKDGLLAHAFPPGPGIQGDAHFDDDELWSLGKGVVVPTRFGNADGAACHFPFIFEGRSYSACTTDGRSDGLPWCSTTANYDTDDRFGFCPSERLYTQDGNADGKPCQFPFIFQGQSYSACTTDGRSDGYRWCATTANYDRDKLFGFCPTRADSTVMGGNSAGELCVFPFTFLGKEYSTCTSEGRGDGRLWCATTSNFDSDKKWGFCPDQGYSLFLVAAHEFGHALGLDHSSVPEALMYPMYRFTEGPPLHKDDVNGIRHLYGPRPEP
MMP10 (Enzo), sequence (chain, as listed by the source): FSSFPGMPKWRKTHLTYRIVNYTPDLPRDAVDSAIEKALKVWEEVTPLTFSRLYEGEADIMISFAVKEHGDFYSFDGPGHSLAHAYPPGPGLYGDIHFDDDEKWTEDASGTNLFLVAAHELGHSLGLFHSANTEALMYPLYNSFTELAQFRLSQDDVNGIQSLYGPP
MMP8 (Enzo), sequence (chain, as listed by the source): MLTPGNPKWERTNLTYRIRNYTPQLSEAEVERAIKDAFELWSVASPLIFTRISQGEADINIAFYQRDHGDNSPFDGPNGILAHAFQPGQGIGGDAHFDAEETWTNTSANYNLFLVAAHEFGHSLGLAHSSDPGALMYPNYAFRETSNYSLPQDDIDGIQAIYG

Active MMP-9 (Alere San Diego)
OD405 (ELISA, streptavidin plate, CF1522-AP) at 0.39 ng/ml MMP9: 0.14 OD405
OD405 (ELISA, streptavidin plate, CF1522-AP) at 0.78 ng/ml MMP9: 0.14 OD405
OD405 (ELISA, streptavidin plate, CF1522-AP) at 1.56 ng/ml MMP9: 0.14 OD405
OD405 (ELISA, streptavidin plate, CF1522-AP) at 3.13 ng/ml MMP9: 0.13 OD405
OD405 (ELISA, streptavidin plate, CF1522-AP) at 6.25 ng/ml MMP9: 0.17 OD405
OD405 (ELISA, streptavidin plate, CF1522-AP) at 12.50 ng/ml MMP9: 0.18 OD405
OD405 (ELISA, streptavidin plate, CF1522-AP) at 25.00 ng/ml MMP9: 0.27 OD405
OD405 (ELISA, streptavidin plate, CF1522-AP) at 50.00 ng/ml MMP9: 0.5 OD405
reader value (lateral flow, CF1522-gold at the polystreptavidin test line) at 0.9765625 ng/ml MMP9: 338 reader units
reader value (lateral flow, CF1522-gold at the polystreptavidin test line) at 1.953125 ng/ml MMP9: 343 reader units
reader value (lateral flow, CF1522-gold at the polystreptavidin test line) at 3.90625 ng/ml MMP9: 413 reader units
reader value (lateral flow, CF1522-gold at the polystreptavidin test line) at 7.8125 ng/ml MMP9: 524 reader units
reader value (lateral flow, CF1522-gold at the polystreptavidin test line) at 15.625 ng/ml MMP9: 882 reader units
reader value (lateral flow, CF1522-gold at the polystreptavidin test line) at 31.25 ng/ml MMP9: 2030 reader units
reader value (lateral flow, CF1522-gold at the polystreptavidin test line) at 62.5 ng/ml MMP9: 3830 reader units
reader value (lateral flow, CF1522-gold at the polystreptavidin test line) at 125 ng/ml MMP9: 5580 reader units
reader value (lateral flow, CF1522-gold at the polystreptavidin test line) at 250 ng/ml MMP9: 6220 reader units
reader value (lateral flow, CF1522-gold at the polystreptavidin test line) at 500 ng/ml MMP9: 6730 reader units
reader value (lateral flow, CF1522-gold at the polystreptavidin test line) at 1000 ng/ml MMP9: 6770 reader units

MMP2 (Enzo)
Reader value (lateral flow, CF1522-gold) with MMP at 0.5 ug/ml: 1610 reader units

MMP3 (Enzo)
Reader value (lateral flow, CF1522-gold) with MMP at 0.5 ug/ml: 336 reader units

MMP8 (Enzo)
Reader value (lateral flow, CF1522-gold) with MMP at 0.5 ug/ml: 1140 reader units

MMP9 (Enzo)
Reader value (lateral flow, CF1522-gold) with MMP at 0.5 ug/ml: 3840 reader units

MMP10 (Enzo)
Reader value (lateral flow, CF1522-gold) with MMP at 0.5 ug/ml: 444 reader units
